Measurements taken from the supplement of paper PMC9112550, “Optimization of the antimicrobial peptide Bac7 by deep mutational scanning” (BMC Biology, 2022).

These sequences were tested on Escherichia coli TOP10 (assay: shrunken log2 fold change of peptide-encoding DNA abundance (4.5 h post-induction vs induction); higher = less antimicrobial activity (less host growth inhibition)). Settings: time post-induction: 4.5 h; library: site-saturation at positions 5, 18, 19, 20.
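Further: peptides expressed intracellularly from a pBAD plasmid library in pooled LB shake-flask culture, induced with 0.3% L-arabinose, DNA abundance read by NGS, three biological replicates, DESeq2 with apeglm shrinkage.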

Row | Sequence | shrunken log2 fold change
1 | RRIRDRPPRLPRPRPRPVWLPRP | 0.105
2 | RRIRDRPPRLPRPRPRPVWQPRP | 0.63
3 | RRIRDRPPRLPRPRPRPVWSPRP | 0.065
4 | RRIRDRPPRLPRPRPRPVWTPRP | 0.0494
5 | RRIRDRPPRLPRPRPRPVYEPRP | -0.105
6 | RRIRDRPPRLPRPRPRPWADPRP | -0.00486
7 | RRIRDRPPRLPRPRPRPWAQPRP | 0.18
8 | RRIRDRPPRLPRPRPRPWATPRP | 0.0691
9 | RRIRDRPPRLPRPRPRPWCIPRP | -0.383
10 | RRIRDRPPRLPRPRPRPWCNPRP | -0.378
11 | RRIRDRPPRLPRPRPRPWCPPRP | -0.422
12 | RRIRDRPPRLPRPRPRPWEDPRP | 0.0111
13 | RRIRDRPPRLPRPRPRPWEVPRP | -0.0135
14 | RRIRDRPPRLPRPRPRPWFIPRP | -0.157
15 | RRIRDRPPRLPRPRPRPWGCPRP | 0.166
16 | RRIRDRPPRLPRPRPRPWGKPRP | -0.194
17 | RRIRDRPPRLPRPRPRPWGLPRP | 0.0419
18 | RRIRDRPPRLPRPRPRPWHFPRP | -0.01
19 | RRIRDRPPRLPRPRPRPWIGPRP | 0.0362
20 | RRIRDRPPRLPRPRPRPWKIPRP | 0.0112
21 | RRIRDRPPRLPRPRPRPWKPPRP | -0.35
22 | RRIRDRPPRLPRPRPRPWKRPRP | -0.0239
23 | RRIRDRPPRLPRPRPRPWKVPRP | -0.0565
24 | RRIRDRPPRLPRPRPRPWLEPRP | 0.098
25 | RRIRDRPPRLPRPRPRPWLIPRP | -0.138

Row | Sequence | shrunken log2 fold change
26 | RRIRDRPPRLPRPRPRPWNGPRP | -0.176
27 | RRIRDRPPRLPRPRPRPWNRPRP | -0.339
28 | RRIRDRPPRLPRPRPRPWRGPRP | 0.196
29 | RRIRDRPPRLPRPRPRPWRMPRP | -0.397
30 | RRIRDRPPRLPRPRPRPWRWPRP | 0.196
31 | RRIRDRPPRLPRPRPRPWSDPRP | -0.0204
32 | RRIRDRPPRLPRPRPRPWTVPRP | -0.168
33 | RRIRDRPPRLPRPRPRPWVDPRP | -0.0979
34 | RRIRDRPPRLPRPRPRPWVRPRP | -0.21
35 | RRIRDRPPRLPRPRPRPWWPPRP | 0.0881
36 | RRIRDRPPRLPRPRPRPYAAPRP | -0.2
37 | RRIRDRPPRLPRPRPRPYAEPRP | 0.247
38 | RRIRDRPPRLPRPRPRPYAFPRP | -0.187
39 | RRIRDRPPRLPRPRPRPYANPRP | -0.209
40 | RRIRDRPPRLPRPRPRPYAQPRP | -0.156
41 | RRIRDRPPRLPRPRPRPYCTPRP | -0.253
42 | RRIRDRPPRLPRPRPRPYDDPRP | -0.00157
43 | RRIRDRPPRLPRPRPRPYDIPRP | -0.00136
44 | RRIRDRPPRLPRPRPRPYGAPRP | 0.00308
45 | RRIRDRPPRLPRPRPRPYHTPRP | -0.403
46 | RRIRDRPPRLPRPRPRPYHYPRP | -0.688
47 | RRIRDRPPRLPRPRPRPYIKPRP | -0.565
48 | RRIRDRPPRLPRPRPRPYIYPRP | -0.184
49 | RRIRDRPPRLPRPRPRPYKMPRP | -0.17
50 | RRIRDRPPRLPRPRPRPYLVPRP | -0.506

Row | Sequence | shrunken log2 fold change
51 | RRIRDRPPRLPRPRPRPYPAPRP | -0.15
52 | RRIRDRPPRLPRPRPRPYPFPRP | -0.671
53 | RRIRDRPPRLPRPRPRPYPNPRP | -0.0838
54 | RRIRDRPPRLPRPRPRPYQTPRP | -0.0929
55 | RRIRDRPPRLPRPRPRPYREPRP | -0.748
56 | RRIRDRPPRLPRPRPRPYTNPRP | -0.647
57 | RRIRDRPPRLPRPRPRPYWLPRP | -0.236
58 | RRIRDRPPRLPRPRPRPYYIPRP | -0.0955
59 | RRIRERPPRLPRPRPRPAEFPRP | 0.00307
60 | RRIRERPPRLPRPRPRPAESPRP | -0.049
61 | RRIRERPPRLPRPRPRPAFMPRP | -0.154
62 | RRIRERPPRLPRPRPRPAICPRP | -0.141
63 | RRIRERPPRLPRPRPRPAIIPRP | -0.259
64 | RRIRERPPRLPRPRPRPAKQPRP | 0.00996
65 | RRIRERPPRLPRPRPRPALGPRP | 0.37
66 | RRIRERPPRLPRPRPRPALQPRP | 0.22
67 | RRIRERPPRLPRPRPRPANEPRP | -0.916
68 | RRIRERPPRLPRPRPRPAPLPRP | 0.324
69 | RRIRERPPRLPRPRPRPAPWPRP | 0.203
70 | RRIRERPPRLPRPRPRPAQGPRP | 0.473
71 | RRIRERPPRLPRPRPRPARMPRP | 0.0587
72 | RRIRERPPRLPRPRPRPARYPRP | 0.24
73 | RRIRERPPRLPRPRPRPASCPRP | -0.211
74 | RRIRERPPRLPRPRPRPASEPRP | -0.123
75 | RRIRERPPRLPRPRPRPASPPRP | -0.165

Row | Sequence | shrunken log2 fold change
76 | RRIRERPPRLPRPRPRPATLPRP | -0.274
77 | RRIRERPPRLPRPRPRPATPPRP | 1.31
78 | RRIRERPPRLPRPRPRPAWQPRP | -0.109
79 | RRIRERPPRLPRPRPRPAYIPRP | -0.168
80 | RRIRERPPRLPRPRPRPAYKPRP | -0.21
81 | RRIRERPPRLPRPRPRPAYMPRP | -0.505
82 | RRIRERPPRLPRPRPRPCAQPRP | -0.00638
83 | RRIRERPPRLPRPRPRPCCTPRP | -0.243
84 | RRIRERPPRLPRPRPRPCHFPRP | 0.161
85 | RRIRERPPRLPRPRPRPCIEPRP | -0.155
86 | RRIRERPPRLPRPRPRPCIYPRP | -0.328
87 | RRIRERPPRLPRPRPRPCLHPRP | -0.0164
88 | RRIRERPPRLPRPRPRPCMKPRP | -0.506
89 | RRIRERPPRLPRPRPRPCMMPRP | -0.058
90 | RRIRERPPRLPRPRPRPCMNPRP | -0.341
91 | RRIRERPPRLPRPRPRPCQRPRP | 0.0562
92 | RRIRERPPRLPRPRPRPCREPRP | -0.129
93 | RRIRERPPRLPRPRPRPCRKPRP | -0.103
94 | RRIRERPPRLPRPRPRPCRRPRP | 0.0646
95 | RRIRERPPRLPRPRPRPCRTPRP | -0.203
96 | RRIRERPPRLPRPRPRPCTNPRP | -0.559
97 | RRIRERPPRLPRPRPRPCTQPRP | -0.00926
98 | RRIRERPPRLPRPRPRPCVMPRP | -0.41
99 | RRIRERPPRLPRPRPRPCWWPRP | 0.288
100 | RRIRERPPRLPRPRPRPDDAPRP | -0.179

Row | Sequence | shrunken log2 fold change
101 | RRIRERPPRLPRPRPRPDDWPRP | -0.0125
102 | RRIRERPPRLPRPRPRPDFLPRP | 0.0309
103 | RRIRERPPRLPRPRPRPDFYPRP | -0.491
104 | RRIRERPPRLPRPRPRPDGDPRP | 0.03
105 | RRIRERPPRLPRPRPRPDHIPRP | -0.537
106 | RRIRERPPRLPRPRPRPDKQPRP | 0.0325
107 | RRIRERPPRLPRPRPRPDLGPRP | -0.0853
108 | RRIRERPPRLPRPRPRPDMFPRP | -0.0153
109 | RRIRERPPRLPRPRPRPDMIPRP | 0.0157
110 | RRIRERPPRLPRPRPRPDPRPRP | 0.768
111 | RRIRERPPRLPRPRPRPDQMPRP | -0.161
112 | RRIRERPPRLPRPRPRPDQNPRP | -0.108
113 | RRIRERPPRLPRPRPRPDSRPRP | -0.0302
114 | RRIRERPPRLPRPRPRPDTVPRP | 0.37
115 | RRIRERPPRLPRPRPRPDVCPRP | -0.239
116 | RRIRERPPRLPRPRPRPDVKPRP | -0.213
117 | RRIRERPPRLPRPRPRPDVSPRP | 0.0276
118 | RRIRERPPRLPRPRPRPDWHPRP | -0.12
119 | RRIRERPPRLPRPRPRPDWIPRP | -0.126
120 | RRIRERPPRLPRPRPRPDWPPRP | 0.108
121 | RRIRERPPRLPRPRPRPDYRPRP | -0.285
122 | RRIRERPPRLPRPRPRPEAPPRP | 0.406
123 | RRIRERPPRLPRPRPRPEDTPRP | -0.343
124 | RRIRERPPRLPRPRPRPEEHPRP | -0.0183
125 | RRIRERPPRLPRPRPRPEERPRP | 0.0375

Row | Sequence | shrunken log2 fold change
126 | RRIRERPPRLPRPRPRPEEYPRP | -0.4
127 | RRIRERPPRLPRPRPRPEGAPRP | 0.592
128 | RRIRERPPRLPRPRPRPEIDPRP | -0.00826
129 | RRIRERPPRLPRPRPRPEIIPRP | 0.0655
130 | RRIRERPPRLPRPRPRPEILPRP | -0.159
131 | RRIRERPPRLPRPRPRPEKDPRP | -0.137
132 | RRIRERPPRLPRPRPRPELNPRP | -0.119
133 | RRIRERPPRLPRPRPRPEMFPRP | 0.232
134 | RRIRERPPRLPRPRPRPEMMPRP | -0.269
135 | RRIRERPPRLPRPRPRPEMVPRP | -0.0371
136 | RRIRERPPRLPRPRPRPENKPRP | -0.697
137 | RRIRERPPRLPRPRPRPENSPRP | -0.0336
138 | RRIRERPPRLPRPRPRPEPIPRP | -0.00736
139 | RRIRERPPRLPRPRPRPEPKPRP | 0.0877
140 | RRIRERPPRLPRPRPRPEPVPRP | -0.00161
141 | RRIRERPPRLPRPRPRPEQQPRP | -0.0255
142 | RRIRERPPRLPRPRPRPEQVPRP | -0.0135
143 | RRIRERPPRLPRPRPRPEQYPRP | -0.14
144 | RRIRERPPRLPRPRPRPERLPRP | 0.171
145 | RRIRERPPRLPRPRPRPESNPRP | -0.65
146 | RRIRERPPRLPRPRPRPESRPRP | -0.0773
147 | RRIRERPPRLPRPRPRPESSPRP | -0.192
148 | RRIRERPPRLPRPRPRPETAPRP | 0.0892
149 | RRIRERPPRLPRPRPRPETHPRP | 0.178
150 | RRIRERPPRLPRPRPRPEVEPRP | -0.0864
